Test results as given in the nanobody polyreactivity screen of Harvey et al. (2022).

Experiment: yeast display, Sf9 membrane polyspecificity reagent, FACS + sequencing; frameworks hold sequencing errors
How it was run: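 Nanobodies came from a synthetic yeast display library in Saccharomyces cerevisiae BJ5465, induced with galactose for 36–48 hours and stained for 1 hour at 4 °C with 10% biotinylated, detergent-solubilized Sf9 membrane reagent. Cells were enriched on streptavidin microbeads and then FACS-sorted, with low and high (top ~1%) gates set on anti-HA fluorescence for expression and streptavidin fluorescence for reagent binding. Each polyreactivity label reflects the gate a clone came from. Genes were amplified by colony PCR, sequenced by MiSeq 2 × 250 and filtered by CDR length.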

| Sequence | polyreactivity (PSR sort gate) |
| --- | --- |
| QVQLVESGGGLVQAGGSLRLSCAASGIIFYYYAMGWYRQAPGTERELVARISLSGGSTYYADSVKGRFTISRDNAKNTVYLQMNSLKPEDTAVYYCATRSWYKRQTYDYWGQGTQVTVSS | high polyreactivity |
| QVQLVESGGGLVQAGGSLRLSCAASGIIFYYYAMGWYRQATGKERELVAAITRSGGSTYYADSVKGRFTISRDNAKNTVYLQMNSLKPEDTAVYYCAAARLPYYVGRYYYWGQGTQVTVSS | high polyreactivity |
| QVQLVESGGGLVQAGGSLRLSCAASGIIIDSNAMGWYRQAPGKERELVAAITSGGSTKYADSVKGRFTISRDNAKNTVYLQMNSLKPEDTAVYYCNADFRPADQWSYFYEMDSWGQGTQVTVSS | low polyreactivity |
| QVQLVESGGGLVQAGGSLRLSCAASGIIIDYNAMGWYRQAHGKERELVAAISSRGGSTYYADSVKGRFTISRDNAKNTVYLQMNSLKPEDTAVYYCAKVIGKYVNSYYWGQGTQVTVSS | low polyreactivity |
| QVQLVESGGGLVQAGGSLRLSCAASGIIIKRNAMGWYRQAPGKEMELVAAISRSGGSTYYSDSVKGRFTISRDIAMNTVYLQMNSLKAEDTAVYYCAADWSEYPYDYWGQGTQVTVSS | low polyreactivity |
| QVQLVESGGGLVQAGGSLRLSCAASGIIIPVYAMGWYRQAPGKERELVAAISSGGSTYYADSVKGRFTISRDNAKNTVYLQMNSLKPEDTAVFYCAAGYQKGYADPGFDYWGQGTQVTVSS | high polyreactivity |
| QVQLVESGGGLVQAGGSLRLSCAASGIIIQINAMGWYRPAPGKERELVAAITIDGTTNYADSVKGRFTISRDNAKNTVYLQMNILKPEDTAVYYCARRRSVYVWEPYQYDYWGQGTQVTVSS | low polyreactivity |
| QVQLVESGGGLVQAGGSLRLSCAASGIIIYRYVMGWYRPAPGKERELVASISSSGGRTHYADSVKGRFTISRDNAKNTVYLQMNSLKPEDTAVYYCAAVQRSSFYRRYDYWGQGTQVTVSS | high polyreactivity |
| QVQLVESGGGLVQAGGSLRLSCAASGIILGSNAKGWYRQAPGKERELVAGITSGGGTYYADSVKGRFTISRDNAKKTVYLQMNSLKPEDTAVYYCAKLYFHYYRYGYWGQGTQVTVSS | low polyreactivity |
| QVQLVESGGGLVQAGGSLRLSCAASGIILHYYAMGWYRQAPGKQRELVAAISARGGRTYYADSVKGRFTISRDNAKNTVYLQMNSLKPEDTAVYYCAAVTVASPTRMDYWGQGTLVTVSS | high polyreactivity |
| QVQLVESGGGLVQAGGSLRLSCAASGIILIQNSMGWSRHAPGKERELVAAISTRGGRTYYADSVKGRFTISRDNAKNTVYLQMNSLKPEDTAVYYCAAYRTTPYRDYKMDYWGQGTQVTVSS | high polyreactivity |
| QVQLVESGGGLVQAGGSLRLSCAASGIILPYYAMGWYRQAPGKERELGASISYDGTSTYYADSVKGRFTISRDNAKNTVYLQMNSLKPEDTAVYYCAAVQWWPRASYSMDYWGQGTQVTASS | low polyreactivity |
| QVQLVESGGGLVQAGGSLRLSCAASGIILRRYAMGWYRQPPGKERELVAAISSRGGSTYYADSVKGRFTISRDNAKNTVYLQMNSLKPEDTAVYYCAAEDYWYDFDYWGQGTQVTVSS | high polyreactivity |
| QVQLVESGGGLVQAGGSLRLSCAASGIILRYYVMGWYRQAPGKERELVAAITSRGGSTYYADSVKGRFTISRDNAKITVYLQMNSLKPEDTAVYYCAAGYRNVNTFDYWGQGTQVTVSS | high polyreactivity |
| QVQLVESGGGLVQAGGSLRLSCAASGIILSPYTMGWYIQAPGKERELVAGISRSGGTTYYADSVKGRFTISRDNAKNTVYLQMNSLKPEDTAVYYCAAGLIYGYSGYDSWGQGTQVTVSS | low polyreactivity |
| QVQLVESGGGLVQAGGSLRLSCAASGIIMPSYVMGWYRQAPGKERELVAAITRSGGNTYYADSVKGRFTISRDNAKNTVYLQMNSLKPEDTAVYYCAARAPVRRYRAYEFDYWGQGTQVTVSS | high polyreactivity |
| QVQLVESGGGLVQAGGSLRLSCAASGIIQVYNTMGWYRQAPGKERELVAAINYSGGSTNYADSVKGRFTISRDNAKNTVYFQMNSLKPEDTAVYYCNARYGGFNVPYLRYEHWGQGTQVTVSS | low polyreactivity |
